Data reported in article PMC3587332 (FEBS letters, 2012).
Values belong to the binder of their own block, whether it stands above or below them.

Assays:
ΔN-Pap1-GST = ΔN-Pap1-GST (S. cerevisiae, UniProt P29468 19-568); test: pull-down
Pap1-GST = Pap1-GST (S. cerevisiae, UniProt P29468 1-568); test: pull-down
Pap1-His6 [1] = target: T1, Pap1-His6 (S. cerevisiae, UniProt P29468 1-568); test: co-IP
ΔN-Pap1-His6 = ΔN-Pap1-His6 (S. cerevisiae, UniProt P29468 19-568); test: co-IP
Pap1-His6 [2] = target: T1, Pap1-His6; test: pull-down

Sequence of Pap1-GST (P29468 whole entry): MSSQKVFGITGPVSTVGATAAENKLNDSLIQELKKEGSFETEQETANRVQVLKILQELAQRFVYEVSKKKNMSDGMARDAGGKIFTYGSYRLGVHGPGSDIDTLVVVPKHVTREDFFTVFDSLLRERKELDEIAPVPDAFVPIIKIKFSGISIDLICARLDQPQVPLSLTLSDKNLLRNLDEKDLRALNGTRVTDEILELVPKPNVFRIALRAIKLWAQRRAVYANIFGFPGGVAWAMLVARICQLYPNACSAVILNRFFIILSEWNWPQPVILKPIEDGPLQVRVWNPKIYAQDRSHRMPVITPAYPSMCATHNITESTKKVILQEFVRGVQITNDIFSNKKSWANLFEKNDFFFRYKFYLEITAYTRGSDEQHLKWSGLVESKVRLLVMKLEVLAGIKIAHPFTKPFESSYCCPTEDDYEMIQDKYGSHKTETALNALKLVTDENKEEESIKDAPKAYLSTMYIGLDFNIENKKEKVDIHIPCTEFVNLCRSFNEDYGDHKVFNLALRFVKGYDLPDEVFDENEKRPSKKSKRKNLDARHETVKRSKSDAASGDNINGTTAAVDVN
T1 sequence (P29468 whole entry): as above
Sequence of ΔN-Pap1-GST (P29468 19-568, stated change not applied): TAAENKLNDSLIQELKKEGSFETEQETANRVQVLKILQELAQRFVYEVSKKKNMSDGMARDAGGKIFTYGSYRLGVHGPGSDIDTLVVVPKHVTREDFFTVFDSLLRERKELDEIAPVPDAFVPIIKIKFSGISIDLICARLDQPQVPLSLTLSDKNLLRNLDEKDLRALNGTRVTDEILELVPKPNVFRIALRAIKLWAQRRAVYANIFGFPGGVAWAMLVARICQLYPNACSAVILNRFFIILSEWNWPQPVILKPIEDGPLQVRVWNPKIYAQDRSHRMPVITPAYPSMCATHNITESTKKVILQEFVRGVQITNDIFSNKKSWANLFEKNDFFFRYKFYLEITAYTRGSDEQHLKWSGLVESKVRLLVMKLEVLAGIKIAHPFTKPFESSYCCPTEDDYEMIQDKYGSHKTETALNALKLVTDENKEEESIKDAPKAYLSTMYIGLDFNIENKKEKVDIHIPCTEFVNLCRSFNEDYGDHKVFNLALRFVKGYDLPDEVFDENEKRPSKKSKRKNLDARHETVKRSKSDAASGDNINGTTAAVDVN
Sequence of ΔN-Pap1-His6 (P29468 19-568, stated change not applied): as above

- binding result (ΔN-Pap1-GST): binds
- binding result (Pap1-GST): binds
- binding result (Pap1-His6 [1]): binds
- binding result (ΔN-Pap1-His6): binds
B1: Fip1(1–206) (domain or fragment, S. cerevisiae, UniProt P45976 1-206, looked up)
chain: MSSSEDEDDKFLYGSDSELALPSSKRSRDDEADAGASSNPDIVKRQKFDSPVEETPATARDDRSDEDIYSDSSDDDSDSDLEVIISLGPDPTRLDAKLLDSYSTAATSSSKDVISVATDVSNTITKTSDERLITEGEANQGVTATTVKATESDGNVPKAMTGSIDLDKEGIFDSVGITTIDPEVLKEKPWRQPGANLSDYFNYGFN

- binding result (Pap1-His6 [2]): binds
B2: GST-Pta1 (1–300) (domain or fragment, S. cerevisiae, UniProt Q01329 1-300, looked up)
chain: MSSAEMEQLLQAKTLAMHNNPTEMLPKVLETTASMYHNGNLSKLKLPLAKFFTQLVLDVVSMDSPIANTERPFIAAQYLPLLLAMAQSTADVLVYKNIVLIMCASYPLVLDLVAKTSNQEMFDQLCMLKKFVLSHWRTAYPLRATVDDETDVEQWLAQIDQNIGVKLATIKFISEVVLSQTKSPSGNEINSSTIPDNHPVLNKPALESEAKRLLDMLLNYLIEEQYMVSSVFIGIINSLSFVIKRRPQTTIRILSGLLRFNVDAKFPLEGKSDLNYKLSKRFVERAYKNFVQFGLKNQII

- binding result (Pap1-GST): binds
B3: Nab6-V5-His6 (the last 210 amino acids) (domain or fragment, S. cerevisiae, UniProt Q03735 925-1134, looked up)
chain: GGGETGTANNTGHENESELEAENENGNETGSFGGLGLAVASSDVKRATSDETDYEDIFNKSSGSSDSSSDVEVIMHSPSDPEYALKSQTLRSSSQTVINSKRPVKIEDEEEAVGMSQLNYRSSLRQAPPRAPSTLSYNHSKNNETPMQDIFTNGETANNRKKKRGSFARHRTIPGSDVMAQYLAQVQHSTFMYAANILGASAEDNTHPDE

- binding result (Pap1-GST): binds
B4: Sub1-V5-His6 (natural protein, S. cerevisiae, UniProt P54000 1-292, looked up)
chain: MSYYNRYRNKRRSDNGGGNLSNSNNNNGGMPSGLSASDAIFDLGKNKRVTVRQFRNINLIDIREYYLDSSTGEMKPGKKGISLTEDLYDELLKHRLNIDEALRRLGSKRPKTKMVRLLSDDEYEDDNNNDSTNNDKDKNGKDKNSPKKRREDKSKASNESHDLEPRSKKKKPAPPTLLPHEENIQNAEREANATLIIPGQAGRKQQEERKQKEKEEAEEAKAKAVAEQEKEAKAKEKIAEPEPEPVPTLQAKKEDIVSNINESKDANSSDEEFAQSLEAEMNKAEDDISEEE
